Test results from the nanobody polyreactivity screen of Harvey et al. (2022).

Test: yeast display, Sf9 membrane polyspecificity reagent, FACS + sequencing; frameworks hold sequencing errors
Method in brief: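 Using colony PCR, genes from sorted yeast display clones were amplified, then sequenced on MiSeq at 2 × 250 and filtered by CDR length. The clones had been stained with 10% biotinylated, detergent-solubilized Sf9 membrane reagent for 1 hour at 4 °C and sorted by FACS into low and high (top ~1%) gates on anti-HA and streptavidin fluorescence. Polyreactivity labels come from the gate of origin.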

Row | Sequence | polyreactivity (PSR sort gate)
1 | QVQLVESGGGLVQAGGSLPLSCAASGRTFRRYGMGWYSNAHGKERELVAGISGYGTTNYADSVKGRFTISRDNAKNTVYLQMNSLKPEDSAVYYCAAGRPYYYTYSGLYYWGQGTQVTVSS | high polyreactivity
2 | QVQLQESGGGQVQAGGSLRWSCAASGYISTHYFMGWYRQAPGKDREFVAGISNGSITNYADSVKGRFTISRDNARNTVYLQMNSLKPEDTAVYYVAAYQWTYVRFGYWGQGTQVTVSG | high polyreactivity
3 | QVHLVDSGGGLVQAGGSLRLSCAASGLIFVSYAMGWYRQEPGKERELVASITDSDSSTYYADSVKGRFTISRDNAKNTVYLQMNSLKPEDTAVYYCATGGRTEIWYPTLDYWGQGTQVTVSS | low polyreactivity
4 | QVQLEESGVGLVQAGGSLRLSWAASGFIIYINTMGWYRQAPGKERELVAAISQSGVGTSYADSVKGRFTISRDNAKNTVYLQMNRLKPEDTAVYYCATDCARSDVVDRFDYWGQGTQVTVSS | low polyreactivity
5 | QVQLVESGGGLVQAGGSLRLSCAASGSTFDSNAMGWYRQAPGKERELVAAIDYSSDSTYYADSVKGRFTISRDNAKNTVYLQMNSLKPEDTAVYYCAADIPPWGGDYWGQGTQVTVSS | low polyreactivity
6 | QVQLVESGGGLVQAGGSLRLSCAACGSIFPRNAMGWYIQAPGKDRALVASLNSGGSTNYADSVKGRFTISRDNAKYTVYLHMNSLKPEDSAGYYCAAVRPWWRNKPQWPRYDYWGQGTQVTVSS | low polyreactivity
7 | QVQLVDSGGGLVQAGGTLSLSCAASGRTFWWYARGWSRQAPGTERELVDAITNFGSTNYADSVKGRFSISRDNAKNTVYLQKNSLKPEDTAVYYCAALTRCWYGGFYQYYYLGQGTQVTVSS | high polyreactivity
8 | QVQLVESGGGLVQAGGSLRLSCAASGLIFVYYDMGWYRQAPGKERELVAAISSSGSTYYADSVKGRFTISRDNAKNTVYLQMNSLKPEDTAVYYCAAEYLYWPFGSNYWGQGTQVTVSS | high polyreactivity
9 | EVQLVETGGGLVQAGGSLRLSCAPSGFNFGVYAMGCYRQEPGKERELFAAISTTVGSTYYADSVKWRFTISRDNEKNTVYLQMTSLKPEDTAVYYCATGWSNCGQGTQVTVSS | low polyreactivity
10 | QVQLVDSGGGLVQAGGSLRLSCAASGSIFHVNAMGWYRQAPGKERELVAAIRSDASTNYADSVKGRFTISRDNAKNTVYLQMNILKPEDTAVYYCNTAQLVSDEFDYSGQGTQVTVSS | low polyreactivity
11 | QVQHVESGGGLVQSGGSLRLSCAASGRNFKFNPMGWYRQPPGKERELVAGITWTGSTTSYADSVKGRFTISRDNATNPVYLQMNSLKPEDTEVYYCDGDKIGFWYHGFYYRGQGTQVTVSS | low polyreactivity
12 | QVQLVESGGGLVQAGGSLRLSCAASGRIFYRYAMGCYRQAPGKERELVAGIRSRGGRTYYADSVKGRFTISRDNAKNTVYLQMNSLKPEDTAVYYCAARYLSGTSRYYYWGQGTQVTVSS | high polyreactivity
13 | QDQLVESGGGLVQAGGSLRLSCAASGRILPYYTMGWYRQAPGKERELVAAISKRGTSTYYADSVKGRFTISRDNAKNTVYLQMNSLKPEDTAVYYCAKRGPGVDYDYWGQGTQVTVSS | high polyreactivity
14 | QVQLVESGGGLVQAGGSLRLSCAASGIIQVYNTMGWYRQAPGKERELVAAINYSGGSTNYADSVKGRFTISRDNAKNTVYFQMNSLKPEDTAVYYCNARYGGFNVPYLRYEHWGQGTQVTVSS | low polyreactivity
15 | QVQLVDSGGGLVQAGGSLRLSCAASGRIIWYKGMGWYTQATGKERELVAAINRGTSTYYADSVKGRFTISRDNAKNSVYLQMNSLKPEDTAVYYCAAGVSRWYYYWGQGTQVTVSS | high polyreactivity
16 | QVQLVESGGGLVQAGGSLRLSCAASGSTFYDNAMGWYRQAPGKERELVAAIDGGDTYYADSVKGRFTISRDNAKNTVYLQMISLKPEDTAVYYCAAESLPEISVGLGYWGQGTQVTVSS | low polyreactivity
17 | QVQLVESGGGLVQAGGSLRLSCAASGYIFYSCAMGWYRQAPGKERELVATISSGGSTYYSDSVKGRFTISRDNAKNTVYLQMNSLKPEDTAVYYCNAKMYKPPFDYWGQGTQVTVSS | low polyreactivity
18 | QVQLVESGGGLVQAGGSLRLSCAASGRIKYNVMGWYRQAPGKEMELVAAITRSAGRTYYADSVKGRFSISRDNAKNTVYLQMNSLKPEHTGGYYCAAQAERYGYVYWGQGTQVTVSS | low polyreactivity
19 | QVQLVESGGGLVQAGGSLRLSCAASGFTFSKYAMGWYRQAPGKERELVASIDDGGSTNYADSVKGRFTISRDNAKNTVYLQKNSLKPEDTAVYYCNASYPTGYWYYVIVQYDYWGQGTQVTVSS | low polyreactivity
20 | QVQLVESGGGLVQAGGSLRLRCAASGRIFNNYAMGWYRPAPGKERELVAAISGSGGSTYYADSVKGRFTISRDNAKNNVYLQMNSLKPEDTAVYYCSTSGPHYFSRNFDYWGQGTQVTVSS | low polyreactivity
21 | QVQLVESGGGLVQAGGSLRLSCAASGYILWNAMGWYRPAPGKERELVAAIRFRGGSTSYADSVKGRFTISRDNAKNTVYLQMNSLKPEDTAVYYCNARWWVIRPYQRHDYWGQGTQVTVSS | low polyreactivity
22 | QVQLVESGGGLVQAGGSLRLTCAASGSIFALYAMGWYRQAPGKERELVAANADSVKGRFTISRDNAKNTVYLQMNSLKPEETAVYYCAKDITGGSGLGSWIYSEYDYWGQGTQVTVSS | low polyreactivity

Row | Sequence | polyreactivity (PSR sort gate)
23 | QVQLVESGGGLVQAGGSLRLSCAASGSIFQAYAMGWYRQAPGKERELVAAITASGTRTYYADSVKGRFTISRDNAQNTVYLQMNSLKPEDTAVYYCAAGTYRWGFGVRSAMDYWGQGTQVTVSS | high polyreactivity
24 | QVQLVESGGGLVQAGGSLRLSCAASGSTFAYNDMGWYRQAPGKERELVADIRSGGNTNYADSVKGRFTISRDNAKNTVYLQMNSLKPEDTAFYYCNVKYFVVAGYRYVKFDYWGQGTQVTVSS | low polyreactivity
25 | QVQLVESGGGLVQAGGSLRLSCAASGSIFGYNAMGWYRQAPGKERELVADISSGDSTNYADSVKGRFTISRDNAKNTVYLQMNSLKPEDTAVYYCAADFTYQGSSANDYWGQGTQVTVSS | low polyreactivity
26 | QFQLVESGGGLVQAGGSLRLSCAASGSIFRENAMGWYRQAPGKEMELVAAIYVRDGDTFYADSVKGRFTISRDNAKNTVYLQMNSLKPEDTAVYYCAADQQKWYTGYDYWGQCTQVTVSS | low polyreactivity
27 | QVQLVESGGGLVQAGGSLRLSCAASGRIFRRYAMGWYRQAPGKERELVASISSGGSTNYADSVKGRFTISRDNAKNTVYLQMNSLKPEDTAVYYCNVYYGYFRSRYGYWGQGTQVTVSS | high polyreactivity
28 | QVQLVESGGGLVQAGGSLRLSCAASGSIFRNYAMGWYRKAPGKERELVADSTYYADSVKGRFTISRDNAKNTVYLQMNSLKPEDTAVYYCNTVYATRYDYWGQGTQVTVSS | high polyreactivity
29 | QVQLVESGGGLVQAGGSLRLSFAASGSIFRYYVMGWYRQAPGKERELVAAISSGGRTYYADSVKGRFTISRDNAKNTVYLQMNSLKPEDTAVYYCNAQGLFYWEMDYWGQGTQVTVSS | high polyreactivity
30 | QVQLVESGGGLVQAGGSLRLSCAASGTIFTVYALGWYRQPPGKERELVAGISSGAGTTYADSVKGRFTISRDNAKNTVYLQMNSMKPEDTAVYYCAAYTWDTDHYWYGYVPYDYWGQGTQVTVSS | low polyreactivity
31 | QVQLVESGGGLVQAGGSLRLSCAASGSIFAWYGMGWYRQAPGKERELVAAITSTGSTYYADSVKGRFTISRDNAKKTVYLQMNSLKPEDTAVYYCNAYSVYLWRPGDYWGQGTQVTVSS | low polyreactivity
32 | QVQLVDSGGGLVQAGGSLRLTSAASGRIFVRNAMGWYRPAPGKERELVAASSWSSGGTYYADSVKGRFTISRDNAKNRVYLQMNSLKPEETAVYSCIADTSRAGVYWGQGTQVTVSS | low polyreactivity
33 | QVQHVESGGGLVQAGGSLRLSCAASGRTFRANTMGWYRQAPGKERELVASIRGNGGTTYYADSVKGRFTISRDNAKNTVYLQMNSLKPEDTAVYYCAAGLYYIRWSRRYEYWGQGTQVTVSS | high polyreactivity
34 | QVQLVESGGGLVQAGGSLRFSCAYSGRTFFGYAMGWYRQAPGKERELVAAITSAGGRTYYADSVKGRYTISRDNAKNTVYLQMNSLKPEYTAVYYCAATRWYYGLSAFDSWGQGTQVTVSS | high polyreactivity
35 | QVQLVESSGGLVQAGGSLRLSCAASGFNFKRYAMGWSRQAPGKEREMVAAINSGGSTNYADSVKGRFTISRDNAKNTVYLQMNSLKPEDTAVYYCAASTSRYYWYALRDYWGQGTQVTVSS | high polyreactivity
36 | QVQLVESGGGLVQAGGSLRLSCAASGSTFYPNAMGRYRQAPGKERELVAAISRGTRTKYADSVKGRFTISRDNAKNNVYLQMNSLKPEDTAVYYCAADTGTGLDWGQGTQVNVSS | high polyreactivity
37 | QVQLVESGGGLVQAGGSLRISCAASGFTSTYYAMGWYRPAPGTERELVAAITSSGTRTYYADSVKGRFTISRDIAKKTGYLQMNSLKPEDTAVYYCNASHRKGMYYWGLGTQVTVSS | high polyreactivity
38 | QVQLVESGGGLVQAGGSLRLSCAASGRILQPNAMGWYRQAPGKERELVAGISRSGGGTYYADSVKWRFTISRDNAKNTVYLQMNTLKPEDTAVYYCAAYRYGYGYGYWGQGTQLTVSS | high polyreactivity
39 | QVQLVESVGGLVQAGGSLRLSCAASGRIFPAYAMGWYRQAPGKERELVASIRRGGITYADSVKGRFTISRDNAKNTVYLQMKSLKPEDTAVYYCNADYRGWGYHMDYWGQGTQVTVSS | low polyreactivity
40 | QVQLVYSGGGLVQAGGSLSLSCAASGSTIDGYAMGWYRQAPGKERELVAAISSSGASTYYADSVKGRFTISRDNAKNTVYLQMNSLKPEDTAVYYCNRVTCQQKNDYWGQGTQVTVSS | high polyreactivity
41 | QVQLVESGGGLVQAGGSLRLSCAVSGRIFRRNVMGWSRPAPGKERALVAGSSYSGDSTYYADSVKGRFTISRDNAKNTVYLQMNSLKPEDTAVYYCAAALAHYRGMYYWGQGTQVTVSS | low polyreactivity
42 | QVQLVESWGCLVQAGGSLRLSCAASGFTFESNAMGWYRQAPGKERELVAAITSSGGRTYYADSVKGRFTISRVNAKNTVYLQMNSLNPEDSAVYYCAATGKAPRESGGVYSMDWGQGTQVTVSS | low polyreactivity
43 | QVQLVESGGGLVQAGGSLRLSCAASGLTLRCNTMGWYRQAPGKERELVADITASAGSTYYADSVKGRFTISRDNAKNTVYLQMISLKPEDTAVYYCAARVYIAYISMDHWGQGTQVTVSS | low polyreactivity
